Where a chain is given by its changes, count along the chain named. Names and notes keep the numbering of the source.
B1: Y61-L50Y (antibody, V domains shown)
VH: QVQLVQSGGGVVQPGRSLRLSCAASGFTFSSYGMHWVRQAPGKGLEWVAFIRYDGSNKYYADSVKGRFTISRDNSKNTLYLQMKSLRAEDTAVYYCKTHGSHDNWGQGTMVTVSS
VL: SYVLTQPPSVSGTPGQRVTISCSGGRSNIGSNTVKWYQQLPGTAPKLLIYYNDQRPSGVPDRFSGSKSGTSASLAITGVQAEDEADYYCQSYDRGTHPALLFGTGTKVTVLG
B2: Y61-L94Y IgG (antibody, V domains shown)
VH: B1 VH
VL: B1 VL with Y51G, G95Y
notes: IgG
B3: Y-61-L50Y-H31E**gG (antibody, V domains shown)
VH: B1 VH with S31E
VL: B1 VL
notes: also called Y61-L50Y-H31E IgG
B4: Y61-L50Y* IgG (antibody, V domains shown)
VH: B1 VH
VL: B1 VL
notes: IgG
B5: 149-7 (antibody, V domains shown)
VH: TTHGSHDNWGQG
VL: QSYDRDFTGSRV

Legend:
[1] = molecular target: T1, human interleukin 12 (hIL-12), p70 heterodimer of p35 and p40 (human, UniProt P29459 23-219; P29460 23-328); test: cell-based or functional assay
T1 sequence (looked up) 1: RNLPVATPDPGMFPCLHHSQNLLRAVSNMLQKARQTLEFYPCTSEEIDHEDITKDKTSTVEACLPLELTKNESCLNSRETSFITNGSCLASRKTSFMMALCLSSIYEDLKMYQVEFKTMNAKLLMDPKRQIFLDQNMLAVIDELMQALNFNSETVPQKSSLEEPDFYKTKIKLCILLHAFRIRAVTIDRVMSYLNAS
T1 sequence (looked up) 2: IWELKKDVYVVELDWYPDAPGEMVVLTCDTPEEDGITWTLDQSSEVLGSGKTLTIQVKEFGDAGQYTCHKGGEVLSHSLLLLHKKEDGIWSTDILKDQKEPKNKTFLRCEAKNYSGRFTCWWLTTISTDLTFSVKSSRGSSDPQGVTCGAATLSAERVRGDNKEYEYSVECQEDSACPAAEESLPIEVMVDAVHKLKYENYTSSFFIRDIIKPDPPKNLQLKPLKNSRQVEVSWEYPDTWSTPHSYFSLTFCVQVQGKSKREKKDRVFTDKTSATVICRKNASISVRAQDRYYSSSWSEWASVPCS

[2] = molecular target: T1, human interleukin 12 (hIL-12), p70 …; test: RB assay: inhibition of IL-12 binding to its receptor
[3] = molecular target: T1, human interleukin 12 (hIL-12), p70 …; test: koff, Table 2 (surface plasmon resonance per text)
[4] = molecular target: T1, human interleukin 12 (hIL-12), p70 …; test: cell-based or functional assay; remark: listed apart in the source

Binder | IFN gamma IC50 [1] [nM] | IC50 [2] [nM] | PHA assay IC50 [1] [nM] | koff [3] [s⁻¹] | PHA assay IC50 (M) p70:p40 1:0 [4] [M] | PHA assay IC50 (M) p70:p40 1:20 [4] [M] | PHA assay IC50 (M) p70:p40 1:50 [4] [M]
B1 | 0.02 | 0.02 | – | – | – | – | –
B2 | 0.04 | 0.06 | 0.05 | 0.000127 | – | – | –
B3 | 0.02 | – | 0.06 | 2.99e-05 | – | – | –
B4 | 0.03 | – | 0.02 | 6.98e-05 | – | – | –
B5 | – | – | – | – | 3.5e-09 | 2.5e-09 | 4e-09

Source: US20140079714A1 (published 2014)
